In US7658917 (PRAECIS PHARMACEUTICALS, dated 2010):
Numbered stars: 1 amine (or outer) side, 2 acyl side, 3 side chain; on linkers, the order of the positions; unused ones are H or OH. Square brackets hold non-standard residues; d marks the D form. Primed or numbered codes have the meaning given here. * marks the point of attachment. Aic′ = 3-(O-aminoethyl-iso)-cholyl, C[C@H](CCC(=O)*)[C@H]1CC[C@H]2[C@@H]3[C@H](O)C[C@@H]4C[C@@H](OCCN)CC[C@]4(C)[C@H]3C[C@H](O)[C@]12C; Cholyl = C[C@H](CCC(=O)*)[C@H]1CC[C@H]2[C@@H]3[C@H](O)C[C@@H]4C[C@H](O)CC[C@]4(C)[C@H]3C[C@H](O)[C@]12C; Adp = aminoethyldibenzofuranylpropanoic acid, O=C(CCc1cccc2c1oc1c(CCN[*:1])cccc12)[*:2]; Tyr(3-I) = N[C@@H](Cc1ccc(O)c(I)c1)C(=O)O; Aic″ = 3-(O-aminoethyl-iso)-cholyl; NANA = N-acetyl neuraminyl; βAla = NCCC(=O)O

B1: CA-VFFA-oh (peptide)
peptide: Cholyl-VFFA-OH
SMILES: CC(C)[C@H](NC(=O)CC[C@@H](C)[C@H]1CC[C@H]2[C@@H]3[C@H](O)C[C@@H]4C[C@H](O)CC[C@]4(C)[C@H]3C[C@H](O)[C@]12C)C(=O)N[C@@H](Cc1ccccc1)C(=O)N[C@@H](Cc1ccccc1)C(=O)N[C@@H](C)C(=O)O
B2: CA-LVFFA-nh2 (peptide)
peptide: Cholyl-LVFFA-NH2
B3: CA-KTVFF-oh (peptide)
peptide: Cholyl-KTVFF-OH
SMILES: CC(C)[C@H](NC(=O)[C@@H](NC(=O)[C@H](CCCCN)NC(=O)CC[C@@H](C)[C@H]1CC[C@H]2[C@@H]3[C@H](O)C[C@@H]4C[C@H](O)CC[C@]4(C)[C@H]3C[C@H](O)[C@]12C)[C@@H](C)O)C(=O)N[C@@H](Cc1ccccc1)C(=O)N[C@@H](Cc1ccccc1)C(=O)O
B4: CA-FKFVL-oh (peptide)
peptide: Cholyl-FKFVL-OH
SMILES: CC(C)C[C@H](NC(=O)[C@@H](NC(=O)[C@H](Cc1ccccc1)NC(=O)[C@H](CCCCN)NC(=O)[C@H](Cc1ccccc1)NC(=O)CC[C@@H](C)[C@H]1CC[C@H]2[C@@H]3[C@H](O)C[C@@H]4C[C@H](O)CC[C@]4(C)[C@H]3C[C@H](O)[C@]12C)C(C)C)C(=O)O
B5: h-LVFFA-oh (peptide)
peptide: H-LVFFA-OH
B6: CA-LV(IY)FA-oh (peptide)
peptide: Cholyl-LV[Tyr(3-I)]FA-OH
B7: CA-FFVLA-oh (peptide)
peptide: Cholyl-FFVLA-OH
SMILES: CC(C)C[C@H](NC(=O)[C@@H](NC(=O)[C@H](Cc1ccccc1)NC(=O)[C@H](Cc1ccccc1)NC(=O)CC[C@@H](C)[C@H]1CC[C@H]2[C@@H]3[C@H](O)C[C@@H]4C[C@H](O)CC[C@]4(C)[C@H]3C[C@H](O)[C@]12C)C(C)C)C(=O)N[C@@H](C)C(=O)O
B8: h-KLVFF-nh2 (peptide)
peptide: H-KLVFF-NH2
B9: CA-KLVFF(βA)-oh (peptide)
peptide: Cholyl-KLVFF[βAla]-OH
SMILES: CC(C)C[C@H](NC(=O)[C@H](CCCCN)NC(=O)CC[C@@H](C)[C@H]1CC[C@H]2[C@@H]3[C@H](O)C[C@@H]4C[C@H](O)CC[C@]4(C)[C@H]3C[C@H](O)[C@]12C)C(=O)N[C@H](C(=O)N[C@@H](Cc1ccccc1)C(=O)N[C@@H](Cc1ccccc1)C(=O)NCCC(=O)O)C(C)C
B10: CA-AVFFA-oh (peptide)
peptide: Cholyl-AVFFA-OH
SMILES: CC(C)[C@H](NC(=O)[C@H](C)NC(=O)CC[C@@H](C)[C@H]1CC[C@H]2[C@@H]3[C@H](O)C[C@@H]4C[C@H](O)CC[C@]4(C)[C@H]3C[C@H](O)[C@]12C)C(=O)N[C@@H](Cc1ccccc1)C(=O)N[C@@H](Cc1ccccc1)C(=O)N[C@@H](C)C(=O)O
B11: CA-VFF-oh (peptide)
peptide: Cholyl-Val-Phe-Phe-OH
SMILES: CC(C)[C@H](NC(=O)CC[C@@H](C)[C@H]1CC[C@H]2[C@@H]3[C@H](O)C[C@@H]4C[C@H](O)CC[C@]4(C)[C@H]3C[C@H](O)[C@]12C)C(=O)N[C@@H](Cc1ccccc1)C(=O)N[C@@H](Cc1ccccc1)C(=O)O
B12: CA-LVF-oh (peptide)
peptide: Cholyl-Leu-Val-Phe-OH
SMILES: CC(C)C[C@H](NC(=O)CC[C@@H](C)[C@H]1CC[C@H]2[C@@H]3[C@H](O)C[C@@H]4C[C@H](O)CC[C@]4(C)[C@H]3C[C@H](O)[C@]12C)C(=O)N[C@H](C(=O)N[C@@H](Cc1ccccc1)C(=O)O)C(C)C
B13: h-LVFFA-(Aic)-oh (peptide)
peptide: H-LVFFA[Aic″]-OH
B14: CA-HQKLVFF-nh2 (peptide)
peptide: Cholyl-HQKLVFF-NH2
B15: NANA-HQKLVFF-nh2 (peptide)
peptide: {NANA}-HQKLVFF-NH2
B16: CA-FFA-oh (peptide)
peptide: Cholyl-Phe-Phe-Ala-OH
SMILES: C[C@H](NC(=O)[C@H](Cc1ccccc1)NC(=O)[C@H](Cc1ccccc1)NC(=O)CC[C@@H](C)[C@H]1CC[C@H]2[C@@H]3[C@H](O)C[C@@H]4C[C@H](O)CC[C@]4(C)[C@H]3C[C@H](O)[C@]12C)C(=O)O
B17: CA-LAFFA-oh (peptide)
peptide: Cholyl-LAFFA-OH
SMILES: CC(C)C[C@H](NC(=O)CC[C@@H](C)[C@H]1CC[C@H]2[C@@H]3[C@H](O)C[C@@H]4C[C@H](O)CC[C@]4(C)[C@H]3C[C@H](O)[C@]12C)C(=O)N[C@@H](C)C(=O)N[C@@H](Cc1ccccc1)C(=O)N[C@@H](Cc1ccccc1)C(=O)N[C@@H](C)C(=O)O
B18: h-(Aic)-LVFFA-oh (peptide)
peptide: H-[Aic′]LVFFA-OH
SMILES: CC(C)C[C@H](NC(=O)CC[C@@H](C)[C@H]1CC[C@H]2[C@@H]3[C@H](O)C[C@@H]4C[C@@H](OCCN)CC[C@]4(C)[C@H]3C[C@H](O)[C@]12C)C(=O)N[C@H](C(=O)N[C@@H](Cc1ccccc1)C(=O)N[C@@H](Cc1ccccc1)C(=O)N[C@@H](C)C(=O)O)C(C)C
B19: CA-LVAFA-oh (peptide)
peptide: Cholyl-LVAFA-OH
SMILES: CC(C)C[C@H](NC(=O)CC[C@@H](C)[C@H]1CC[C@H]2[C@@H]3[C@H](O)C[C@@H]4C[C@H](O)CC[C@]4(C)[C@H]3C[C@H](O)[C@]12C)C(=O)N[C@H](C(=O)N[C@@H](C)C(=O)N[C@@H](Cc1ccccc1)C(=O)N[C@@H](C)C(=O)O)C(C)C
B20: NANA-KLVFF-oh (peptide)
peptide: {NANA}-KLVFF-OH
B21: CA-LVFFK-oh (peptide)
peptide: Cholyl-LVFFK-OH
SMILES: CC(C)C[C@H](NC(=O)CC[C@@H](C)[C@H]1CC[C@H]2[C@@H]3[C@H](O)C[C@@H]4C[C@H](O)CC[C@]4(C)[C@H]3C[C@H](O)[C@]12C)C(=O)N[C@H](C(=O)N[C@@H](Cc1ccccc1)C(=O)N[C@@H](Cc1ccccc1)C(=O)N[C@@H](CCCCN)C(=O)O)C(C)C
B22: CA-LVFFAE-oh (peptide)
peptide: Cholyl-LVFFAE-OH
SMILES: CC(C)C[C@H](NC(=O)CC[C@@H](C)[C@H]1CC[C@H]2[C@@H]3[C@H](O)C[C@@H]4C[C@H](O)CC[C@]4(C)[C@H]3C[C@H](O)[C@]12C)C(=O)N[C@H](C(=O)N[C@@H](Cc1ccccc1)C(=O)N[C@@H](Cc1ccccc1)C(=O)N[C@@H](C)C(=O)N[C@@H](CCC(=O)O)C(=O)O)C(C)C
B23: h-DDIIL-(Adp)-VFF-oh (peptide)
peptide: H-DDIIL[Adp]VFF-OH
SMILES: CC[C@H](C)[C@H](NC(=O)[C@H](CC(=O)O)NC(=O)[C@@H](N)CC(=O)O)C(=O)N[C@H](C(=O)N[C@@H](CC(C)C)C(=O)NCCc1cccc2c1oc1c(CCC(=O)N[C@H](C(=O)N[C@@H](Cc3ccccc3)C(=O)N[C@@H](Cc3ccccc3)C(=O)O)C(C)C)cccc12)[C@@H](C)CC
B24: CA-LVFFA-o-methyl (peptide)
peptide: Cholyl-LVFFA-OMe
B25: h-LVFFA-nh2 (peptide)
peptide: H-LVFFA-NH2
B26: CA-LVFF-oh (peptide)
peptide: Cholyl-LVFF-OH

Each binder was assayed against natural β-amyloid peptide β-AP1-40 (human) (assay: cell-based or functional assay).
Chain of natural β-amyloid peptide β-AP1-40 (human) (peptide, as listed by the source): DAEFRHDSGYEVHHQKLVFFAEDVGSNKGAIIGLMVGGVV

Binder | % Iext'n; seeded extension assay; 25 mole % [%] | % Inucl'n; nucleation assay; 100 mole % [%] | ΔLag; nucleation assay; 100 mole % [ratio] | % Inucl'n; nucleation assay; 33 mole % [%] | ΔLag; nucleation assay; 33 mole % [ratio]
B1 | 10 | 76 | 2 |  | 
B2 | 91 | -200 | 1 |  | 
B3 | 21 | 18 | 1.2 |  | 
B4 | 37 | 45 | 0.8 |  | 
B5 | 11 | 15 | 1 |  | 
B6 | 71 | 100 | > 5 |  | 
B7 | 89 | 100 | > 5 |  | 
B8 | 39 | -9 | 1.3 |  | 
B9 | 80 | 76 | 2.5 |  | 
B10 | 44 | 68 | 1.4 |  | 
B11 | 0 | 55 | 1.8 |  | 
B12 | 0 | 1 | 1.3 |  | 
B13 | 3 | 46 | 3.5 |  | 
B14 |  |  |  | 5 | 1.1
B15 |  | -15 | 1.5 |  | 
B16 | 6 | 51 | 1 |  | 
B17 | 66 | 47 | 1.5 |  | 
B18 | 87 |  |  | 100 | > 5
B19 | 0 | 25 | 2.7 |  | 
B20 | 8 | 16 | 0.9 |  | 
B21 | 85 |  |  | 100 | > 5
B22 | 16 | 55 | 1.4 |  | 
B23 | 0 | 14 | 0.4 |  | 
B24 | 0 |  |  |  | 
B25 | 70 | 11 | 1.3 |  | 
B26 | 51 |  |  | 72 | 1.8
